Reference: patent US20090117096A1 (Scripps Research, published 2009)

Experiments:
[1] = target: T1, integrin αvβ1 (human, UniProt P06756 31-1048; P05556 21-798); experiment: flow cytometry on human tumor cell panel (summary statement)
T1 construct: whole, on cells

[2] = target: T2, integrin αvβ5 (human, UniProt P06756 31-1048; P18084 24-799); experiment: as above
T2 construct: whole, on cells

[3] = target: T3, integrin α5β1 (human, UniProt P08648 42-1049; P05556 21-798); experiment: flow cytometry on human tumor cell panel (FIG. 1)
T3 construct: whole, on cells
Method: Flow cytometry. scFv binding to human tumor cells was analyzed by flow cytometry, initially with cloned scFv phage and then with purified scFv protein. […] Binding/washing buffer was TBS with or without divalent cations (1 mM Ca²⁺, 1 mM Mg²⁺, 0.2 mM Mn²⁺). […] All samples were counter stained with propidium iodide (PI) and analyzed on a Becton-Dickinson FACScan, with live gate set to exclude PI positive cells.

Measured: binding result

T3 sequence (P08648 42-1049, chain 1 of 2): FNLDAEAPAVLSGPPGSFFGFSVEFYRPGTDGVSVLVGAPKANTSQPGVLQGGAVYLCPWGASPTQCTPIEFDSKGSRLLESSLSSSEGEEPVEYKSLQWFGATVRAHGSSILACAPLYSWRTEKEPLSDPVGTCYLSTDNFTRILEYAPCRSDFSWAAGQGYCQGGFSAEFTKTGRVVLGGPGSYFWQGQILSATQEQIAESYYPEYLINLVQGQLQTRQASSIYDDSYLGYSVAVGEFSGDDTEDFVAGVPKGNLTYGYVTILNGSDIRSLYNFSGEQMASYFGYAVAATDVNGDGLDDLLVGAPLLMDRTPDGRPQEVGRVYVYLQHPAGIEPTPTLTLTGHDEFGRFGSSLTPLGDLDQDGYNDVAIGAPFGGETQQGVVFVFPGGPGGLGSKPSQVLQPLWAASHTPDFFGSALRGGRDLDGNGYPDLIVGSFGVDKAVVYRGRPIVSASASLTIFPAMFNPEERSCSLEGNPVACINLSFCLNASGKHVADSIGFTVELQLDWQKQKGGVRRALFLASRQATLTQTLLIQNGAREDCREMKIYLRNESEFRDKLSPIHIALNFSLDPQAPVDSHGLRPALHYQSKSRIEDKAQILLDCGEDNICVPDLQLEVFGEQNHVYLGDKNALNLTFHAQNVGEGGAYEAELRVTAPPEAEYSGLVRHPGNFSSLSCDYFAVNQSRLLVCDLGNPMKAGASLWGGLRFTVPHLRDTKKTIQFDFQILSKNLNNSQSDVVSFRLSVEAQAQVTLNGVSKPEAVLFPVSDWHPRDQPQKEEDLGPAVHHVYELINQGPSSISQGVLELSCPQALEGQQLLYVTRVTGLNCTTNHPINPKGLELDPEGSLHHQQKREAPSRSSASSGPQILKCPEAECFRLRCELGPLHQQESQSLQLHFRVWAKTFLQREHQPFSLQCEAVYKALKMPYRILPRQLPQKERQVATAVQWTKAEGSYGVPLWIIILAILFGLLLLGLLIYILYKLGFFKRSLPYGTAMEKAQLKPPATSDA
T3 sequence (P05556 21-798, chain 2 of 2): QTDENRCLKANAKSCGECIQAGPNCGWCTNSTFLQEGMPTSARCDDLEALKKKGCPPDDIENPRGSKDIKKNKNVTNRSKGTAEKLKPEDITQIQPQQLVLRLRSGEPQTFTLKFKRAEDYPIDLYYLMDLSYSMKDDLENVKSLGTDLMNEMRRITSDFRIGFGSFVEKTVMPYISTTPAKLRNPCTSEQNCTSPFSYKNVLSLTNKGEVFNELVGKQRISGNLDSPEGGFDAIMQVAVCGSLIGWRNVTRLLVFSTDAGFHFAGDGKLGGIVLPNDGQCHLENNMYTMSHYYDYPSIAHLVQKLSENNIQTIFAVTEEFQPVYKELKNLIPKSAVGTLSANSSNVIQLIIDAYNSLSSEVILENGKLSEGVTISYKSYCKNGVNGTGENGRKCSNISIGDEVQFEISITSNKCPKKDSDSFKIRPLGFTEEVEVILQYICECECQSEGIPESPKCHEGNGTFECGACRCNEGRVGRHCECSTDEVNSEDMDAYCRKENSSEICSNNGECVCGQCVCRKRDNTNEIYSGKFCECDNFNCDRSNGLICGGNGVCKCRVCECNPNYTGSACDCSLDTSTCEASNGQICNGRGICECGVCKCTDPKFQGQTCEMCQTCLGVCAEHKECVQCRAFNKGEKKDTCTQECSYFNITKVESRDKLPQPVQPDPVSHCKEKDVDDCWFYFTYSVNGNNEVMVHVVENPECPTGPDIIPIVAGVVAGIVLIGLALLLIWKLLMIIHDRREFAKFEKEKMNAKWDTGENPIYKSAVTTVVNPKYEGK
T1 sequence (P06756 31-1048, chain 1 of 2): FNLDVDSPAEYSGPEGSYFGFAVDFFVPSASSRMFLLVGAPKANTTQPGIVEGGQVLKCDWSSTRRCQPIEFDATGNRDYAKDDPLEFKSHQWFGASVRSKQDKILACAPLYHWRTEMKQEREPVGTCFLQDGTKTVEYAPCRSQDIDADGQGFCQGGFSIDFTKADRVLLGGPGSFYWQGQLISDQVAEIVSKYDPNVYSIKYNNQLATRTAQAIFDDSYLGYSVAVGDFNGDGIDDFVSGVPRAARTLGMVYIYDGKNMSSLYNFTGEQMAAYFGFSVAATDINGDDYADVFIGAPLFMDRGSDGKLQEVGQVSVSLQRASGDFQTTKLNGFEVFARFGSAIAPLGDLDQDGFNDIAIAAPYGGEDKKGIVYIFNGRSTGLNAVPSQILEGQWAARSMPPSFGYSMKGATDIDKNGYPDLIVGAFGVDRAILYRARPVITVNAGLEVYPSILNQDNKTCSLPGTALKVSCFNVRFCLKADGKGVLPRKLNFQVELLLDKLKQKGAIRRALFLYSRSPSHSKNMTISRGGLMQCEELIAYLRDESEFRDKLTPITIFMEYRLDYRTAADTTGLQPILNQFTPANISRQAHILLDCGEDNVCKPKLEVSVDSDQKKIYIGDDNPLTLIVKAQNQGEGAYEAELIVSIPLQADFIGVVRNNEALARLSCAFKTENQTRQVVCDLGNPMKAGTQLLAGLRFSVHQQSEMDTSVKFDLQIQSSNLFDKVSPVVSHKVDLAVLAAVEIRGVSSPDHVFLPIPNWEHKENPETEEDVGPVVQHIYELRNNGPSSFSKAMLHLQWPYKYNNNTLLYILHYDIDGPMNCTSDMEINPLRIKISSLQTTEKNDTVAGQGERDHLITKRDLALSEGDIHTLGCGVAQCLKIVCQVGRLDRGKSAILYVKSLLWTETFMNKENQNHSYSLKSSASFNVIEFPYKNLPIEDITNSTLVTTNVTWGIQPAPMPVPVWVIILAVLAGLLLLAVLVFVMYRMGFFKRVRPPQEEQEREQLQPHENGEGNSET
T1 sequence (P05556 21-798, chain 2 of 2): as the sequence (P05556 21-798, chain 2 of 2) above
T2 sequence (P06756 31-1048, chain 1 of 2): as the sequence (P06756 31-1048, chain 1 of 2) above
T2 sequence (P18084 24-799, chain 2 of 2): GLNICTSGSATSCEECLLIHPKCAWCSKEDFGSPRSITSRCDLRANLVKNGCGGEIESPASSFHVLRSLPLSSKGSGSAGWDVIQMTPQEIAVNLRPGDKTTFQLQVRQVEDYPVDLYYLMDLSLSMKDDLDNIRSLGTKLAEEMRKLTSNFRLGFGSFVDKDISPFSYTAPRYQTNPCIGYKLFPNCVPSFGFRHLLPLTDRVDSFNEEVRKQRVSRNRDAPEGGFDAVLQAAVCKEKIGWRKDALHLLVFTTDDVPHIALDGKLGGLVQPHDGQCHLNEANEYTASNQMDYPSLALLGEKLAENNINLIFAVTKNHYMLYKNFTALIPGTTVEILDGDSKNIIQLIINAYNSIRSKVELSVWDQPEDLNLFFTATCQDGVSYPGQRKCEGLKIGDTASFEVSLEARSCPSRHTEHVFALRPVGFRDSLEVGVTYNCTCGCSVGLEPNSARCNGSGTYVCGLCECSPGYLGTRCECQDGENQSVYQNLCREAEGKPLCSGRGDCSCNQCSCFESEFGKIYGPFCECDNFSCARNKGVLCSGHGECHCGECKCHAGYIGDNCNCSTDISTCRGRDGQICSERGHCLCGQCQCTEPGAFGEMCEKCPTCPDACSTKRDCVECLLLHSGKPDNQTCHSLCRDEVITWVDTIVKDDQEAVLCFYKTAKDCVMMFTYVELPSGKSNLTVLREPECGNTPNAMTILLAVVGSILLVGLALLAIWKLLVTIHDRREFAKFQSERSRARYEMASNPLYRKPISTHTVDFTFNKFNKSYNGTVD

B1: scFv antibody Bc-12 (scFv)
scFv: MAQVQLVQSGAEVKKPGASVKVSCKASGYTFSNYGITWVRQAPGQGLEWMGWINNGNTHYAQKFQGRVTMTTDTSTSTAYMELRSLRSDDTAVYYCARDPRGDDEPYWGQGTLVTVSSGGGGSGGGGSGGGGSEIVLTQSPLSLPVTLGQPASISCRSSQNLVYSDGNTYLSWFQQRPGQSPRRLIYKVSNRDSGVPDRFSGSGSGTDFTLKISRVEAEDIGVYYCMQGTHWPPRTFGQGTKVEIKRGLGGLVDYKDDDDK
notes: also called scFv Bc-12
no binding: all assays above
